From patent publication US6818617B1 (Temple University- Of The Commonwealth System of Higher …, priority 1997, dated 2004)
Entries after “also recorded” stand apart in the source; their conditions may differ. Read-outs that look alike come from different tables or passages of the source.

How the values were obtained:
αIIbβ3 [1] = target: T1, αIIbβ3 (Homo sapiens, UniProt P05106+P08514); test: A5 (CHOαIIbβ3+) cell adhesion to immobilized fibrinogen; assay type: cell-based; settings: A5 (CHOαIIbβ3+) cells, ligand Fg
Method: (§1) Adhesion of cultured cells labeled with 5-chloromethylfluorescein diacetate (CMFDA) was performed as described earlier (Marcinkiewicz et al., Blood 90:1565-1575 (1997)). […] Wells were blocked by 1% BSA in HBSS buffer. Cells were labeled with fluorescein by incubation with 12.5 AM CMFDA in HBSS buffer containing 1% BSA at 37° C. by 15 min. Unbound label was removed by washing with the same buffer. Labeled cells (1×10^5 per sample) were added to the well in the presence or absence of inhibitors and incubated at 37° C. for 30 min. Unbound cells were removed by aspiration, the wells were washed and bound cells were lysed by adding 0.5% Triton X-100. In parallel the standard curve was prepared in the same plate from known concentrations of labelled cells. The plate was read using a Cytofluor 2350 fluorescence plate reader (Millipore, Bedford, Mass.) at 485 nm EX(excitation) filter and 530 nm (emmision) filter.
(§2) The effect of each peptide on cell adhesion was determined as described above. […] Cells that attached to the plates were lysed with detergent, and fluorescence intensity was measured. Percent inhibition was measured at each concentration and IC50 was determined.

αvβ3 = target: T2, αvβ3 (Homo sapiens, UniProt P05106+P06756); test: VNRC3 (CHOαvβ3+) cell adhesion to immobilized vitronectin; assay type: cell-based
T2 construct: expressed in transfected cells; host or cells: CHO (VNRC3 cells), gift of Dr. M. Ginsberg
Method: as §1, §2

α5β1 = target: T3, α5β1 (Homo sapiens, UniProt P05556+P08648); test: K562 cell adhesion to immobilized fibronectin; assay type: cell-based; settings: 5 μg per sample of protein from fraction
T3 construct: host or cells: K562
Method: as §1

α6β1 = target: T4, α6β1 (Homo sapiens, UniProt P05556+P23229); test: K562 (α6+) cell adhesion to laminin; assay type: cell-based
T4 construct: expressed in transfected cells; host or cells: K562 transfected with α6
Method: as §1, §2

α4β1 [2] = target: T5, α4β1 (Homo sapiens, UniProt P05556+P13612); settings: read-out: IC50, direct binding assay; Jurkat cells, α4β1, VCAM-Ig
Method: (§3) The direct binding assay (DBA) with VCAM-11 g alkaline phosphatase conjugate was performed using Jurkat (α4β1 expressing) and JY (α4β7 expressing) cells according to procedure described in Lobb et al, Cell Adhes. Commun. 3:385-398 (1995)).

α4β7 [3] = target: T6, α4β7 (Homo sapiens, UniProt P13612+P26010); settings: read-out: IC50, direct binding assay; JY cells, α4β7, VCAM-Ig
Method: as §3

α4β1 and α4β7 integrins = test: Panel of α4 integrin cell adhesion assays; assay type: cell-based; settings: range over assays
Method: as §1, §2

α4β1 integrin [4] = target: T7, α4β1 integrin (Homo sapiens, UniProt P05556+P13612); test: HP2/1 antibody binding to Jurkat cells by flow cytometry; settings: 60 nM EC3, 10 μg/ml HP 2/1, flow cytometry
T7 construct: host or cells: Jurkat
Method: (§4) Samples for flow cytometry analysis were prepared as described (Marcinkiewicz et al., Biochem. J. 371:118-124 (1996)), and analyzed in a Coulter Epics flow cytometer (Miami, Fla.).
(§5) The adhesion study was performed using CMFDA-labeled Jurkat cells in the absence or presence 1 mM GRGDSP or GRGESP, or 10 μg/ml HP 2/1. Competition between EC3 and HP2/1 was also confirmed in cell suspension using FACS analysis. […] The experiment was performed using flow cytometry. Jurkat cells (open bars) or B2-CHO cells (CHO cells with deleted α5 transfected with α4) (closed bars) were incubated with 10 μg/ml HP 2/1 in the absence (a) or presence 60 nM EC3 (b) for 30 min at room temperature. After washing, 10 μg/ml of FITC-conjugated goat anti-mouse IgG was added and samples were incubated for another 30 min at room temperature. The samples were fixed by addition of 1% paraformaldehyde before measurement of fluorescence intensity.

α4β1 integrin [5] = target: T8, α4β1 integrin (UniProt G3HZ55+P13612); test: HP2/1 antibody binding to α4B2 cells by flow cytometry; parameters: species or system human; settings: 60 nM EC3, 10 μg/ml HP 2/1, flow cytometry
T8 construct: expressed in transfected cells; host or cells: B2 CHO cells (α5-deficient), gift of Dr. Y. Takada
Method: as §4, §5

α4 inactive G190A mutant = target: T9, α4 inactive G190A mutant (Homo sapiens, UniProt P13612, G223A); test: Adhesion of CHO cells transfected with α4 G190A mutant to immobilized EC3; assay type: cell-based; settings: EC3 2 μg/well immobilized; adhesion identical with non transfected cells
T9 construct: expressed in transfected cells; host or cells: CHO, gift of Dr. Y. Takada
Method: as §1
EC3 (2 μg/well) and HP2/1 (1 μg/well) were immobilized on the 96well plate. The CHO cells were labeled with CMFDA and adhesion was performed as described above. […] Only A2 cells expressing wild type α4 adhered to immobilized HP2/1.

[6] = test system: lymphocyte infiltration of pancreatic Langerhans islets; test: Lymphocyte infiltration of Langerhans islets in Non Obese Diabetic (NOD) mice; assay type: in vivo, mouse
Method: Female NOD mice from […] of age were purchased from Jackson Laboratory (Bar Harbor, Me.).
After nine weeks of treatment the animals were sacrificed by exposure to CO2. The pancreas was removed, frozen, and stored at −70° C. until the histological analysis. For the histological analysis, five μm sections of frozen tissue were fixed with acetone. For detection of infiltrating lymphocytes, the sections were stained with hematoxylin/eosin, and observed by light microscopy.

α4β1 [7] = target: T5, α4β1; test: Jurkat cell adhesion to immobilized VCAM-1; assay type: cell-based; parameters: host or cells: Jurkat
Method: as §1
The cell adhesion assay (as described in Example 1) was used to study the inhibitory effect of the eluted fractions on Jurkat cell adhesion to immobilized VCAM-1 and on K562 cell adhesion to fibronectin. […]
as §2

α4β1 [8] = target: T5, α4β1; test: Jurkat cell adhesion to CS-1; assay type: cell-based; parameters: host or cells: Jurkat; settings: Jurkat cells, ligand CS-1
Method: as §1, §2

αIIbβ3 [9] = target: T1, αIIbβ3; test: ADP-induced platelet aggregation in platelet rich plasma (ADP PA); assay type: cell-based; parameters: endogenous in cells; host or cells: platelets in platelet rich plasma; settings: Platelets, αIIbβ3, ligand Fg, 30 μM ADP
Method: Blood from a healthy donor was collected into a syringe containing sodium citrate as an anticoagulant. The anticoagulated blood was centrifuged at 400 g for 17 minutes, and platelet rich plasma (PRP) was removed by aspiration.

α4β7 [10] = target: T6, α4β7; test: RPMI 8866 cell adhesion to MadCAM-1; assay type: cell-based; parameters: endogenous in cells; host or cells: JY cells (A11); RPMI 8866 cells (A12); settings: RPMI 8866 cells, α4β7, ligand MadCAM-1
Method: as §1, §2

α4β1 [11] = target: T10, α4β1 (UniProt G3HZ55+P13612); test: A2 (CHOα4+) cell adhesion to immobilized VCAM-1; assay type: cell-based, human; parameters: expressed in transfected cells; host or cells: CHO (A2 cells, α4+ α5+), gift of Dr. Y. Takada; settings: A2 (CHOα4+) cells, ligand VCAM-1
Method: as §1, §2

α4β1 [12] = target: T10, α4β1; test: α4B2 (CHOα4+/α5−) cell adhesion to immobilized VCAM-1; assay type: cell-based, human; parameters: expressed in transfected cells; host or cells: B2 CHO cells (α5-deficient), gift of Dr. Y. Takada; settings: α4B2 (CHOα4+/α5−) cells, ligand VCAM-1
Method: as §1
Chinese hamster ovary cells transfected with human α4 integrin were provided by Dr. Y. Takada (Scripps Research Institute, La Jolla, Calif.). […] The bound cells were lysed with 0.5% Triton X-100, and fluorescence was measured.
as §2

T2 sequence (P06756 31-889 limits assumed): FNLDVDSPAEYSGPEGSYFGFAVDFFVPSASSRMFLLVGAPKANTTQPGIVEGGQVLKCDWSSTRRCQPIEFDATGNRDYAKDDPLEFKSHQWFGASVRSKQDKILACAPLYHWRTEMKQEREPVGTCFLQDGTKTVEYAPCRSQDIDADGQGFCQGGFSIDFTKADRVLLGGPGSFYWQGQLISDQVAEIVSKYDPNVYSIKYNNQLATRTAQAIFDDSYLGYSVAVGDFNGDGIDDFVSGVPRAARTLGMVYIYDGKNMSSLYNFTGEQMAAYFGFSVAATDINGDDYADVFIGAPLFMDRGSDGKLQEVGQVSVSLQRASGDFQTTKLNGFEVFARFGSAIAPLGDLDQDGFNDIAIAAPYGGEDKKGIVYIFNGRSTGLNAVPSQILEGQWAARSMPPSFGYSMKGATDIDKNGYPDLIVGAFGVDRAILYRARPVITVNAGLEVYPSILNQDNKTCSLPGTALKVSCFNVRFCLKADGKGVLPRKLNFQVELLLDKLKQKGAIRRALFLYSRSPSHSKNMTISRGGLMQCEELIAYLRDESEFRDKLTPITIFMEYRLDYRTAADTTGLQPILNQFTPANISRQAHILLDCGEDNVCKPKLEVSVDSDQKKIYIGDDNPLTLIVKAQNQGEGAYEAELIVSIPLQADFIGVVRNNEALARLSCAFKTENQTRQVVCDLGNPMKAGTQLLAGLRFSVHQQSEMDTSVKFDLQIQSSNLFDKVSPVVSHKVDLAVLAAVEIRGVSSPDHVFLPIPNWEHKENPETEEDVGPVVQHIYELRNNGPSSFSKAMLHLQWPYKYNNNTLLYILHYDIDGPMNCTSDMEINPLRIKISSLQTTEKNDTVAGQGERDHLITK
T2 sequence (P06756 891-1048 partner limits assumed): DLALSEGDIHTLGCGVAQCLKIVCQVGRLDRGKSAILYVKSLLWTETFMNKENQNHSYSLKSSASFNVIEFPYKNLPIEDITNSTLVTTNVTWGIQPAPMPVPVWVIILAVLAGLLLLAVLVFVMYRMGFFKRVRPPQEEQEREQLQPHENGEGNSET
T2 sequence (P05106 27-788): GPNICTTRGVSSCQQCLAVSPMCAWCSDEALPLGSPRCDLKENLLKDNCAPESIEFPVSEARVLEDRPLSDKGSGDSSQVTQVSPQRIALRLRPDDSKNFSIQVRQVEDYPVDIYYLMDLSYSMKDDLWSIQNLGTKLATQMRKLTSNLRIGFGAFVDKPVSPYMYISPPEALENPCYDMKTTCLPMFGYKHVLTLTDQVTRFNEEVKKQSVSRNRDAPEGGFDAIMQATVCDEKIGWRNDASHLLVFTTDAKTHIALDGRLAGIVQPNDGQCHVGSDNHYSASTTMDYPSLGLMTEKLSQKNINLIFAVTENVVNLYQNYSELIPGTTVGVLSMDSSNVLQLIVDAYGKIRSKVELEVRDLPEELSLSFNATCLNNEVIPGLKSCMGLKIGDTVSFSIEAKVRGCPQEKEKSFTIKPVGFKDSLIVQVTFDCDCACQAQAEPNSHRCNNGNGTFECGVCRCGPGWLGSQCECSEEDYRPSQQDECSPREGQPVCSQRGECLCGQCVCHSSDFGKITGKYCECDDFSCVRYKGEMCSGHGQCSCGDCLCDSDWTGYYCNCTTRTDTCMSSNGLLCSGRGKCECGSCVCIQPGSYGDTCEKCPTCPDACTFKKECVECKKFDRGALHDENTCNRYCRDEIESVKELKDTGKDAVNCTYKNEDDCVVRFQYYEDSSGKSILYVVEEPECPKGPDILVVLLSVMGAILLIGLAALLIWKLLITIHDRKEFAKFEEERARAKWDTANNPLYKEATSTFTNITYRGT
T4 sequence (P23229 24-938 limits assumed): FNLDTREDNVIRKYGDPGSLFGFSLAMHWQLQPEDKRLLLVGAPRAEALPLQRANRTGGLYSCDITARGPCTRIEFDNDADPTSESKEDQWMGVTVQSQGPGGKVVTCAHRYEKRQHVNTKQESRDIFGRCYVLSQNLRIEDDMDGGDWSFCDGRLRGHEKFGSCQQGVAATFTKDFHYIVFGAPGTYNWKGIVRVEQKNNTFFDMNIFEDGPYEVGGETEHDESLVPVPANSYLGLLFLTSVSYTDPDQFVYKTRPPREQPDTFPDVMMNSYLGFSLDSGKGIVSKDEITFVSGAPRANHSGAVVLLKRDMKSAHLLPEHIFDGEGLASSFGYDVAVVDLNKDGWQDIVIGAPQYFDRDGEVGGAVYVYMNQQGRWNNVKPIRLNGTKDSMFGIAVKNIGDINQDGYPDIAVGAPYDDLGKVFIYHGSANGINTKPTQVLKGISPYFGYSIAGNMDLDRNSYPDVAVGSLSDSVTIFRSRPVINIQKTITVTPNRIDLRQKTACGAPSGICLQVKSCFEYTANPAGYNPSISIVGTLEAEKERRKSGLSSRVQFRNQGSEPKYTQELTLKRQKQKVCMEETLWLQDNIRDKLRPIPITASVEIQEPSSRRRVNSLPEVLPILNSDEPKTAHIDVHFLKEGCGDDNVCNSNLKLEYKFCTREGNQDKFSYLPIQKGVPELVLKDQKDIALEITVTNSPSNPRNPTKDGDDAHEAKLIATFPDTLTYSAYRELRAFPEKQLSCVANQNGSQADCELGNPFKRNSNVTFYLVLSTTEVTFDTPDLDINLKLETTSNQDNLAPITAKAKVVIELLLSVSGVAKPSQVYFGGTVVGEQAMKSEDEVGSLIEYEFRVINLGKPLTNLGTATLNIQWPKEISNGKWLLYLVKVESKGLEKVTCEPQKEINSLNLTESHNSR
T4 sequence (P23229 942-1130 partner limits assumed): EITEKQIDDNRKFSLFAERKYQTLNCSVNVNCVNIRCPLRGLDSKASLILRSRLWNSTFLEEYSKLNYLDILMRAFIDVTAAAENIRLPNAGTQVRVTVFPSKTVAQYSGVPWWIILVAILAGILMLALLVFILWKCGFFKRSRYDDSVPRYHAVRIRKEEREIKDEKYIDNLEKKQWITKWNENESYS
T4 sequence (P05556 21-798): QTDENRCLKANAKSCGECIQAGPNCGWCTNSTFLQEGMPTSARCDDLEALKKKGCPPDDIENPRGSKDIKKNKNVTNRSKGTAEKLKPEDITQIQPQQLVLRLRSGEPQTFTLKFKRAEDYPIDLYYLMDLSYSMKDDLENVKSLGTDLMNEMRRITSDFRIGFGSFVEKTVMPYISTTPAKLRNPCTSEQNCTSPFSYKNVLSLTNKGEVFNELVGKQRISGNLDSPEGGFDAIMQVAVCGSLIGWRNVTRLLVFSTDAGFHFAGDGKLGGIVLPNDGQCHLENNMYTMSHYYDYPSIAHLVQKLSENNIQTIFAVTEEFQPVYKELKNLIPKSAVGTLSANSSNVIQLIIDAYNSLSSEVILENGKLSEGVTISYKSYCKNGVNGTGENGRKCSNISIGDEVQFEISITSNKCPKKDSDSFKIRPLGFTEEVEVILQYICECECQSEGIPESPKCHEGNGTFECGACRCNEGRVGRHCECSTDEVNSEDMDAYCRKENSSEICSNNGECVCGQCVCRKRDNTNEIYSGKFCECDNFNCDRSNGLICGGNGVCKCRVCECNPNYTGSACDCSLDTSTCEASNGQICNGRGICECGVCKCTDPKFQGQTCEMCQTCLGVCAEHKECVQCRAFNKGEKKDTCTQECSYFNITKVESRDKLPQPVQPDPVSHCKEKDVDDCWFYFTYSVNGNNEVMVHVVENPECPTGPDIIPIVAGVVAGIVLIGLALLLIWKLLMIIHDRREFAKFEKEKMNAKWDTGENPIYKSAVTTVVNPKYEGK
T3 sequence (P08648 42-894 limits assumed): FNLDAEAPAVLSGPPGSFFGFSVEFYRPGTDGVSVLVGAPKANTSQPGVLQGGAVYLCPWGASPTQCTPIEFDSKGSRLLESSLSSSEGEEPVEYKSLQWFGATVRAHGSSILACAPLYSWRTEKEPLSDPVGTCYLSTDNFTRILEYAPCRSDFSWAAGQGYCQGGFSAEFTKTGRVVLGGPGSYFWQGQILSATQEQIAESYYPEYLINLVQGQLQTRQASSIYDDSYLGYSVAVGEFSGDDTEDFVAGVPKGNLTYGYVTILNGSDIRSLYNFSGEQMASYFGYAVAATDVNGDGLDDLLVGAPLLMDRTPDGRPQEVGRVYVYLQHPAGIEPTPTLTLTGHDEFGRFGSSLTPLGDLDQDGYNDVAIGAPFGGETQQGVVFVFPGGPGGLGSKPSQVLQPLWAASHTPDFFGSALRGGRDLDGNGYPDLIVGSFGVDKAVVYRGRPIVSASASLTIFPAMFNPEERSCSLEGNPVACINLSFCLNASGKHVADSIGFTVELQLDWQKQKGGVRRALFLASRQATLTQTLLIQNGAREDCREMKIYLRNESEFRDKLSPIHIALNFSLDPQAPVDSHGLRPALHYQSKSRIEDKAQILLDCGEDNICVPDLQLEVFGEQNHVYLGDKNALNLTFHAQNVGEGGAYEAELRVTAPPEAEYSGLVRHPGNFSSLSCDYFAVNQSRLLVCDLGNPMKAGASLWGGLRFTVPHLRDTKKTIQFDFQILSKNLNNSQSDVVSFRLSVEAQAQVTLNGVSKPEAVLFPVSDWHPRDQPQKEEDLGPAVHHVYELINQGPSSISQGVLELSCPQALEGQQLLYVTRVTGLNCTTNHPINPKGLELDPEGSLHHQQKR
T3 sequence (P08648 895-1049 partner limits assumed): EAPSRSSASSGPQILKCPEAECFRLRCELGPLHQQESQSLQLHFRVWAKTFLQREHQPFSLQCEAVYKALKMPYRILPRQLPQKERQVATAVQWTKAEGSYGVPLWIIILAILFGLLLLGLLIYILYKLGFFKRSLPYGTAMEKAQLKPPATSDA
T3 sequence (P05556 21-798): as the sequence (P05556 21-798) above

B1: EC-3 (protein, listed as Echis carinatus)
chain 1: NSVHPCCDPVKCEPREGEHCISGPCCRNCYFLRAGTVCKRAVGDDVDDYCSGITPDCPRNRYKGKED
chain 2: NSVHPCCDPVKCEPREGEHCISGPCCRNCKFLNAGTICKRAMLDGLNDYCTGISTDCPRNRYKGKED
**Q.** B1 was tested. Which IC50 (αIIbβ3 [1]) did it give?
**A.** 500 nM

**Q.** And the IC50 (αvβ3; VNRC3 (CHOαvβ3+) cells, ligand Vn)?
**A.** > 10000 nM

**Q.** And the “inhibition of αvβ3-dependent adhesion” value (αvβ3; up to 10 μM)?
**A.** no inhibition

**Q.** And the “inhibition of binding of K562 cells to immobilized fibronectin” value (α5β1)?
**A.** inhibited binding

**Q.** And the IC50 (α6β1; K562 (α6+) cells, α6β1, ligand Lm)?
**A.** > 10000 nM

**Q.** What about the “inhibition of adhesion to laminin of K562 cells transfected with α6” value (α6β1; at concentration 10 μM) of the same molecule?
**A.** neither echistatin nor EC3 inhibited

**Q.** And the IC50 (α4β1 [2])?
**A.** 28 nM

**Q.** And the IC50 (α4β7 [3])?
**A.** 6 nM

**Q.** And the IC50 (α4β1 and α4β7 integrins; anchorage-dependent and anchorage-independent cells, read-out: concentration of highly potent inhibition of interaction of cells expressing α4β1 with VCAM-1 or CS-1)?
**A.** 20 to 300 nM

**Q.** And the IC50 (α4β1 and α4β7 integrins; read-out: IC50, adhesion of cells expressing α4β1 and α4β7 integrins to VCAM-1 and MadCAM-1)?
**A.** 5 to 300 nM

**Q.** What about the “inhibition of HP2/1 binding to Jurkat cells” value (α4β1 integrin [4]) of the same molecule?
**A.** No inhibitory effect

**Q.** And the “inhibition of HP2/1 binding to α4B2 cells” value (α4β1 integrin [5])?
**A.** inhibition of HP2/1 binding

**Q.** What about the “interaction of inactive G190A α4 mutant with immobilized EC3” value (α4 inactive G190A mutant) of the same molecule?
**A.** did not interact

**Q.** And the “Number of Islets, Infiltration Score ++” value ([6]; ++ = ⅓ of the islet infiltrated, of 27 (echistatin) or 29 (EC-3) islets, nine weeks i.p.)?
**A.** 7

**Q.** What about the “Number of Islets, Infiltration Score +++” value ([6]; +++ = ½ or more of the islet infiltrated, of 27 (echistatin) or 29 (EC-3) islets, nine weeks i.p.) of the same molecule?
**A.** 0

**Q.** And the “Number of Animals without infiltration” value ([6]; NOD mice, i.p. three times per week for nine weeks, echistatin 1 μg/mouse, EC-3 3 μg/mouse, 10 animals per group)?
**A.** 2

**Q.** And the “effect on lymphocyte infiltration in pancreatic islets of NOD mice (in words)” value ([6]; echistatin 1 μg/mouse, EC-3 3 μg/mouse, i.p. three times per week, nine weeks)?
**A.** reduced levels of lymphocyte infiltration; also recorded: can block lymphocyte invasion; also recorded: reduced the level of lymphocyte infiltration

**Q.** What about the “Number of Islets, Infiltration Score −” value ([6]; − = no infiltration, of 27 (echistatin) or 29 (EC-3) islets, nine weeks i.p.) of the same molecule?
**A.** 10

**Q.** What about the “inhibitory effect on Jurkat cell binding to immobilized VCAM-1” value (α4β1 [7]; 5 μg per sample of protein from fraction) of the same molecule?
**A.** significant inhibitory effects

**Q.** What about the IC50 (α4β1 [7]; Jurkat cells, ligand VCAM-1, read-out: IC50, cell adhesion) of the same molecule?
**A.** 25 nM

**Q.** And the IC50 (α4β1 [8])?
**A.** 100 nM

**Q.** What about the IC50 (αIIbβ3 [9]) of the same molecule?
**A.** 1000 nM

**Q.** And the IC50 (α4β7 [10])?
**A.** 5 nM

**Q.** And the IC50 (α4β1 [11])?
**A.** 30 nM

**Q.** And the IC50 (α4β1 [12])?
**A.** 30 nM
